11 molecules from patent publication US20150285810A1 (LUDWIG INSTITUTE FOR CANCER RESEARCH, published 2015) can be followed below.

B4: iASPP (625-828)-His (other)
chain: LNPLVLLLDAALTGELEVVQQAVKEMNDPSQPNEEGITALHNAICGANYSIVDFLITAGANVNSPDSHGWTPLHCAASCNDTVICMALVQHGAAIFATTLSDGATAFEKCDPYREGYADCATYLADVEQSMGLMNSGAVYALWDYSAEFGDELSFREGESVTVLRRDGPEETDWWWAALHGQEGYVPRNYFGLFPRVKPQRSKVHHHHHH
notes: Contains the ankyrin repeats and SH3 domain; FITC-labelled in the nuclear import assay; also called C-terminal iASPP

Experiment [1] addresses T1, iASPP (1-240)-GST (human, UniProt Q8WUF5 1-240).
T1 construct: Expressed in bacteria, purified on glutathione beads; also called N-terminal iASPP; not shown: GST tag from pGEX vector (BamHI/EcoRI cloning)
T1 sequence: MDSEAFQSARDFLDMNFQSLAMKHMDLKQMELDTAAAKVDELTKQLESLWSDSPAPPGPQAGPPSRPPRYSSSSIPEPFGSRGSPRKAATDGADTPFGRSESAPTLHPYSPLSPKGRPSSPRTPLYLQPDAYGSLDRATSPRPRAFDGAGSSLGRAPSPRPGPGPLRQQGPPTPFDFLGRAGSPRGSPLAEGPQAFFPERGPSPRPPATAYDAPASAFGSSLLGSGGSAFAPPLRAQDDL
In words: glutathione bead pull-down of purified proteins, anti-His blot.

The experiment “iASPP (625-828)-His” concerns the target B4. Described as above.
Experiment [2] has as its target p53, transfected (co-transfected in H1299 cells; transfected in Saos-2 cells) (UniProt P04637 1-393). In words: cell-based or functional assay.
Another experiment has as its target T2, iASPP (249-482)-GST (human, UniProt Q8WUF5 249-482).
T2 construct: not shown: GST tag from pGEX vector
T2 sequence: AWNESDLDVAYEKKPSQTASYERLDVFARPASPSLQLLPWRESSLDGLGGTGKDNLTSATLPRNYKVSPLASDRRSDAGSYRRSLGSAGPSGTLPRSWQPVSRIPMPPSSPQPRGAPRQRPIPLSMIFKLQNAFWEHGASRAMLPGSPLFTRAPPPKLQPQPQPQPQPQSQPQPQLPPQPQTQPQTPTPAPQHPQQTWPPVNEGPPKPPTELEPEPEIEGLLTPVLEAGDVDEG
The experiment can be described thus: glutathione bead pull-down of purified proteins, anti-His blot.

For experiment [3], the target named is T1, iASPP (1-240)-GST. The experiment can be described thus: in vitro translated iASPP(625-828)-V5 pulled down with iASPP(1-240)-GST glutathione beads.
Experiment [4] has as its target T1, iASPP (1-240)-GST. In words: in vitro translated iASPP(625-828)-V5 mutant pulled down with iASPP(1-240)-GST glutathione beads.

p53, transfected (co-transfected in H1299 cells; transfected in Saos-2 cells), sequence (P04637 whole entry): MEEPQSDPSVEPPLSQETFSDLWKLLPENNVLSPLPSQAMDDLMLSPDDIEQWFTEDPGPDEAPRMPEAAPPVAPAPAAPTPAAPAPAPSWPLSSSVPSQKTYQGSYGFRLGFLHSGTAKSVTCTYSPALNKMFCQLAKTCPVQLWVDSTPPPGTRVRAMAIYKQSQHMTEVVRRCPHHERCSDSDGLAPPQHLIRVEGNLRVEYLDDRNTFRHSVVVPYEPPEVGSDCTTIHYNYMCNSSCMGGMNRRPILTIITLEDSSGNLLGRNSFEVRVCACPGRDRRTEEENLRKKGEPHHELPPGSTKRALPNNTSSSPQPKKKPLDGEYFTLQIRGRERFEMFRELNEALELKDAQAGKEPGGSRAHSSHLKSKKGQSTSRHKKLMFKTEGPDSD

B1: ASPP2 (905-1128)-His (other)
chain: RTNLRKTGSERIAHGMRVKFNPLALLLDSSLEGEFDLVQRIIYEVDDPSLPNDEGITALHNAVCAGHTEIVKFLVQFGVNVNAADSDGWTPLHCAASCNNVQVCKFLVESGAAVFAMTYSDMQTAADKCEEMEEGYTQCSQFLYGVQEKMGIMNKGVIYALWDYEPQNDDELPMKEGDCMTIIHREDEDEIEWWWARLNDKEGYVPRNLLGLYPRIKPRQRSLAHHHHHH
notes: FITC-labelled in the nuclear import assay; also called C-terminus of ASPP2
With B1, in the experiment with iASPP (1-240)-GST [1], the binding result is given as “no binding (tested: 10 µg/ml each)”.

B2: iASPP (1-240) S84D/S113D (other)
chain: MDSEAFQSARDFLDMNFQSLAMKHMDLKQMELDTAAAKVDELTKQLESLWSDSPAPPGPQAGPPSRPPRYSSSSIPEPFGSRGDPRKAATDGADTPFGRSESAPTLHPYSPLDPKGRPSSPRTPLYLQPDAYGSLDRATSPRPRAFDGAGSSLGRAPSPRPGPGPLRQQGPPTPFDFLGRAGSPRGSPLAEGPQAFFPERGPSPRPPATAYDAPASAFGSSLLGSGGSAFAPPLRAQDDL
notes: also called iASPP phosphor-mimic mutant; not shown: GST tag from pGEX vector
With B2, the binding result with iASPP (625-828)-His is given as “no binding (tested: 10 µg/ml each)”.

B3: iASPP(S84D/S113D)-V5 (other, not shown: small tags and cut ends)
chain: MDSEAFQSARDFLDMNFQSLAMKHMDLKQMELDTAAAKVDELTKQLESLWSDSPAPPGPQAGPPSRPPRYSSSSIPEPFGSRGDPRKAATDGADTPFGRSESAPTLHPYSPLDPKGRPSSPRTPLYLQPDAYGSLDRATSPRPRAFDGAGSSLGRAPSPRPGPGPLRQQGPPTPFDFLGRAGSPRGSPLAEGPQAFFPERGPSPRPPATAYDAPASAFGSSLLGSGGSAFAPPLRAQDDLTLRRRPPKAWNESDLDVAYEKKPSQTASYERLDVFARPASPSLQLLPWRESSLDGLGGTGKDNLTSATLPRNYKVSPLASDRRSDAGSYRRSLGSAGPSGTLPRSWQPVSRIPMPPSSPQPRGAPRQRPIPLSMIFKLQNAFWEHGASRAMLPGSPLFTRAPPPKLQPQPQPQPQPQSQPQPQLPPQPQTQPQTPTPAPQHPQQTWPPVNEGPPKPPTELEPEPEIEGLLTPVLEAGDVDEGPVARPLSPTRLQPALPPEAQSVPELEEVARVLAEIPRPLKRRGSMEQAPAVALPPTHKKQYQQIISRLFHRHGGPGPGGPEPELSPITEGSEARAGPPAPAPPAPIPPPAPSQSSPPEQPQSMEMRSVLRKAGSPRKARRARLNPLVLLLDAALTGELEVVQQAVKEMNDPSQPNEEGITALHNAICGANYSIVDFLITAGANVNSPDSHGWTPLHCAASCNDTVICMALVQHGAAIFATTLSDGATAFEKCDPYREGYADCATYLADVEQSMGLMNSGAVYALWDYSAEFGDELSFREGESVTVLRRDGPEETDWWWAALHGQEGYVPRNYFGLFPRVKPQRSKV
For B3, in experiment [2], the “inhibition of p53 mediated transcription (PIG3 reporter, Saos-2 cells), against wild type iASPP” value was ~3 fold.

Take B4: the binding result in the experiment with iASPP (249-482)-GST was “no binding (tested: 10 µg/ml each)”.

B5: iASPP (625-828)-V5, wild type, in vitro translated (other)
chain: LNPLVLLLDAALTGELEVVQQAVKEMNDPSQPNEEGITALHNAICGANYSIVDFLITAGANVNSPDSHGWTPLHCAASCNDTVICMALVQHGAAIFATTLSDGATAFEKCDPYREGYADCATYLADVEQSMGLMNSGAVYALWDYSAEFGDELSFREGESVTVLRRDGPEETDWWWAALHGQEGYVPRNYFGLFPRVKPQRSKV
notes: not shown: V5 tag
Regarding B5, the binding result in the experiment with iASPP (1-240)-GST [3] is reported as “binds”.

B6: iASPP(625-828)/T722A (other)
chain: LNPLVLLLDAALTGELEVVQQAVKEMNDPSQPNEEGITALHNAICGANYSIVDFLITAGANVNSPDSHGWTPLHCAASCNDTVICMALVQHGAAIFAATLSDGATAFEKCDPYREGYADCATYLADVEQSMGLMNSGAVYALWDYSAEFGDELSFREGESVTVLRRDGPEETDWWWAALHGQEGYVPRNYFGLFPRVKPQRSKV
notes: In vitro translated; not shown: V5 tag
As to B6, the binding result with iASPP (1-240)-GST [4] is recorded as “binds”.

B7: iASPP(625-828)/L724A (other)
chain: LNPLVLLLDAALTGELEVVQQAVKEMNDPSQPNEEGITALHNAICGANYSIVDFLITAGANVNSPDSHGWTPLHCAASCNDTVICMALVQHGAAIFATTASDGATAFEKCDPYREGYADCATYLADVEQSMGLMNSGAVYALWDYSAEFGDELSFREGESVTVLRRDGPEETDWWWAALHGQEGYVPRNYFGLFPRVKPQRSKV
notes: as for B6
Regarding B7, the binding result in the experiment with iASPP (1-240)-GST [4] is reported as “binds”.

B8: iASPP(625-828)/N813A (other)
chain: LNPLVLLLDAALTGELEVVQQAVKEMNDPSQPNEEGITALHNAICGANYSIVDFLITAGANVNSPDSHGWTPLHCAASCNDTVICMALVQHGAAIFATTLSDGATAFEKCDPYREGYADCATYLADVEQSMGLMNSGAVYALWDYSAEFGDELSFREGESVTVLRRDGPEETDWWWAALHGQEGYVPRAYFGLFPRVKPQRSKV
notes: as for B6
With B8, in the experiment with iASPP (1-240)-GST [4], the binding result is given as “binds”.

B9: iASPP(625-828)/T722A/N813A (other)
chain: LNPLVLLLDAALTGELEVVQQAVKEMNDPSQPNEEGITALHNAICGANYSIVDFLITAGANVNSPDSHGWTPLHCAASCNDTVICMALVQHGAAIFAATLSDGATAFEKCDPYREGYADCATYLADVEQSMGLMNSGAVYALWDYSAEFGDELSFREGESVTVLRRDGPEETDWWWAALHGQEGYVPRAYFGLFPRVKPQRSKV
notes: as for B6
B9: the binding result with iASPP (1-240)-GST [4] is “binds”.

B10: iASPP(625-828)/T722A/Y814A (other)
chain: LNPLVLLLDAALTGELEVVQQAVKEMNDPSQPNEEGITALHNAICGANYSIVDFLITAGANVNSPDSHGWTPLHCAASCNDTVICMALVQHGAAIFAATLSDGATAFEKCDPYREGYADCATYLADVEQSMGLMNSGAVYALWDYSAEFGDELSFREGESVTVLRRDGPEETDWWWAALHGQEGYVPRNAFGLFPRVKPQRSKV
notes: as for B6
As to B10, the binding result with iASPP (1-240)-GST [4] was “binds”.

B11: iASPP(625-828)/Y814A (other)
chain: LNPLVLLLDAALTGELEVVQQAVKEMNDPSQPNEEGITALHNAICGANYSIVDFLITAGANVNSPDSHGWTPLHCAASCNDTVICMALVQHGAAIFATTLSDGATAFEKCDPYREGYADCATYLADVEQSMGLMNSGAVYALWDYSAEFGDELSFREGESVTVLRRDGPEETDWWWAALHGQEGYVPRNAFGLFPRVKPQRSKV
notes: as for B6
For the molecule B11, the binding result in the experiment with iASPP (1-240)-GST [4] is listed as “binds”.
